# Like-named read-outs stand apart in the source and are kept apart here.
# B1: chCB6-huIgG1 K334D (antibody, name in EU numbering)
# heavy: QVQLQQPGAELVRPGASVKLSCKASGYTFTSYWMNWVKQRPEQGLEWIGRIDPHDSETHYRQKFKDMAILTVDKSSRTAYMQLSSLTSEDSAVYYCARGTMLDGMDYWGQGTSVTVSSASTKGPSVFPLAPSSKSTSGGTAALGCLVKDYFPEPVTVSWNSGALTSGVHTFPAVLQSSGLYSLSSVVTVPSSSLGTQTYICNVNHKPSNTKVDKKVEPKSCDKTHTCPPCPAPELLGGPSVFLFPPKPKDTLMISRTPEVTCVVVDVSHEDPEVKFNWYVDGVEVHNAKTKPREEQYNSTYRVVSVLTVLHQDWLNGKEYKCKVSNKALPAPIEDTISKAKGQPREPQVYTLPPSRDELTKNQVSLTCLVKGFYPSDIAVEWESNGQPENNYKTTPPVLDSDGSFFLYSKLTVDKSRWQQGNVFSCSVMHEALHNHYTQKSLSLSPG
# light: QIVLTQSPAIMSASPGEKVTMTCRASSSVSHMHWYQQKSGTSPKRWIYDTSKLASGVPARFSGSGSGTSYSLTISSVEAEDAATYYCQQWSSNPLTFGAGTKLELKRTVAAPSVFIFPPSDEQLKSGTASVVCLLNNFYPREAKVQWKVDNALQSGNSQESVTEQDSKDSTYSLSSTLTLSKADYEKHKVYACEVTHQGLSSPVTKSFNRGEC
# notes: copies: 2 + 2
# B2: chCB6-huIgG1 E333D (antibody, name in EU numbering)
# heavy: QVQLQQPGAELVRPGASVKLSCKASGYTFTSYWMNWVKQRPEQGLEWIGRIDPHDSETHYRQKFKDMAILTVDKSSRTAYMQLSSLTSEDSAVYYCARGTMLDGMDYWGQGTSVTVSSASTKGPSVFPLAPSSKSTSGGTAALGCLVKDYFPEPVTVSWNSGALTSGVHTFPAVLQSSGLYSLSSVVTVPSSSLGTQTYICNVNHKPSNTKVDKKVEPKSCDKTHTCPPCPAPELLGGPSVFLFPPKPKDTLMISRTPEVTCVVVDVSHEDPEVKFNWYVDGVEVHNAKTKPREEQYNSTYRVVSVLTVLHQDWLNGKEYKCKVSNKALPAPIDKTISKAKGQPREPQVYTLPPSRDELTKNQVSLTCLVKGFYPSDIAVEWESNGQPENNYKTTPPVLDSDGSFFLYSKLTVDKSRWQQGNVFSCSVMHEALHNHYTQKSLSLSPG
# light: B1 light
# notes: copies: 2 + 2
# B3: chCB6-huIgG1 K326D (antibody, name in EU numbering)
# heavy: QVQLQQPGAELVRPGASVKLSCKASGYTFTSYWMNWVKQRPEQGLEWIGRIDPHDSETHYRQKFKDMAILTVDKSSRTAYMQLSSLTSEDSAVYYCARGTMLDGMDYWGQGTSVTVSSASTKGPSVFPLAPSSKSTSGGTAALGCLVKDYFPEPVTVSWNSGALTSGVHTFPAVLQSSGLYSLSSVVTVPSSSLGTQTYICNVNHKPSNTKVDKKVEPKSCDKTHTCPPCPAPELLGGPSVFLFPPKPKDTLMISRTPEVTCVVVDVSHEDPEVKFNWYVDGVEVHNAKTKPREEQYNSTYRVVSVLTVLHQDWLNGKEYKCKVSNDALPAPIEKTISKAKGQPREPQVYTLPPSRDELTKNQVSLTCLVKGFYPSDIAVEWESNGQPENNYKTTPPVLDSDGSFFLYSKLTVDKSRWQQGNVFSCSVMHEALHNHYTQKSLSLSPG
# light: B1 light
# notes: copies: 2 + 2
# B4: chCB6-huIgG1 K326Q (antibody, name in EU numbering)
# heavy: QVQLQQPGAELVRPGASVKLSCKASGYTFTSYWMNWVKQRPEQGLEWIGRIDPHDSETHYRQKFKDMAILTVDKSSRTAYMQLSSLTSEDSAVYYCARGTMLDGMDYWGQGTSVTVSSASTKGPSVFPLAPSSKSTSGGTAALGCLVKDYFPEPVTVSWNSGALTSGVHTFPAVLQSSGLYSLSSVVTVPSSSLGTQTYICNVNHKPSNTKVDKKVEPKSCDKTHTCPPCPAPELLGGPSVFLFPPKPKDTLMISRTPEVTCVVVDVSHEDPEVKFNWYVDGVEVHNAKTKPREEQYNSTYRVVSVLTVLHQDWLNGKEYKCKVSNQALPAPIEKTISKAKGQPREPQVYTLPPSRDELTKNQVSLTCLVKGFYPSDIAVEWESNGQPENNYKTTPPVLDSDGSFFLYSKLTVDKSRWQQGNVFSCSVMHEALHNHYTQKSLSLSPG
# light: B1 light
# notes: copies: 2 + 2
# B5: chCB6-huIgG1 K334E (antibody, name in EU numbering)
# heavy: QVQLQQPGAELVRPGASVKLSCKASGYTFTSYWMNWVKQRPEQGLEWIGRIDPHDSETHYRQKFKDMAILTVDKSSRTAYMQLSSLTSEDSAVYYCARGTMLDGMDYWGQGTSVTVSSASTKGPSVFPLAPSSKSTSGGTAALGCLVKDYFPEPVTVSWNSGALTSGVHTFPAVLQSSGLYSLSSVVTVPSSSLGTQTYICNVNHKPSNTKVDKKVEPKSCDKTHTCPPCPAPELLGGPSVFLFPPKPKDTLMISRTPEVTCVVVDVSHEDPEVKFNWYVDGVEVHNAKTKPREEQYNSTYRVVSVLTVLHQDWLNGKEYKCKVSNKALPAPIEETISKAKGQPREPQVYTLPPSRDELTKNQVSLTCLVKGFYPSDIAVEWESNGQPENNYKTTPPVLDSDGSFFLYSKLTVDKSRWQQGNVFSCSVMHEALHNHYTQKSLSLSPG
# light: B1 light
# notes: copies: 2 + 2
# B6: chCB6-huIgG1 K334N (antibody, name in EU numbering)
# heavy: not shown
# light: B1 light
# notes: copies: 2 + 2
# B7: chCB6-huIgG1 K334Q (antibody, name in EU numbering)
# heavy: not shown
# light: B1 light
# notes: copies: 2 + 2
# B8: chCB6-huIgG1 K334R (antibody, name in EU numbering)
# heavy: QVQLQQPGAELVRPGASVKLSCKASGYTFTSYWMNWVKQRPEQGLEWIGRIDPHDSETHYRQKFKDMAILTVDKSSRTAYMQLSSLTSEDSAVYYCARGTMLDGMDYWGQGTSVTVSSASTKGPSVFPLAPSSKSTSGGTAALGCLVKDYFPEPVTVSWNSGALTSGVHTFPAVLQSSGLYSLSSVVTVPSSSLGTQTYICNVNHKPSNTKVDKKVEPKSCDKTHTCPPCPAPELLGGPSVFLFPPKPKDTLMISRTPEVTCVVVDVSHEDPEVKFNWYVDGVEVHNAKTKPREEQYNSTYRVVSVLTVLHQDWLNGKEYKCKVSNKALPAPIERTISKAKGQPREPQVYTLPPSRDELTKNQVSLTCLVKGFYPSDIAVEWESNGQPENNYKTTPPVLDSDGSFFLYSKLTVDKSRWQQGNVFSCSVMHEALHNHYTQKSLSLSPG
# light: B1 light
# notes: copies: 2 + 2
# B9: chCB6-huIgG1 K334V (antibody, name in EU numbering)
# heavy: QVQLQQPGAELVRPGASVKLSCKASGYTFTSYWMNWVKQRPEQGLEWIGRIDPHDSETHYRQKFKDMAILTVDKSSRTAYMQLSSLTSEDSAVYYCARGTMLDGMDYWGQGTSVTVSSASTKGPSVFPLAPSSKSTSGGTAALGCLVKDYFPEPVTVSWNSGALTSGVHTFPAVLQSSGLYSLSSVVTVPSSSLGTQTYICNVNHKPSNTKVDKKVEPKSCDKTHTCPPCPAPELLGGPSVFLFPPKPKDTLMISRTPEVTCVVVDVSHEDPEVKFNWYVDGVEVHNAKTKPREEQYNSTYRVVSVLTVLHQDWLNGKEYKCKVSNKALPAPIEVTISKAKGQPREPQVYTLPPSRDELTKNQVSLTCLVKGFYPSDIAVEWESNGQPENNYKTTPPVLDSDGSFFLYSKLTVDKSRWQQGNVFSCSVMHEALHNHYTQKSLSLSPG
# light: B1 light
# notes: copies: 2 + 2
# B10: chCB6-huIgG1 A378K (antibody, name in EU numbering)
# heavy: not shown
# light: B1 light
# notes: copies: 2 + 2
# B11: chCB6-huIgG1 A378R (antibody, name in EU numbering)
# heavy: not shown
# light: B1 light
# notes: copies: 2 + 2
# B12: chCB6-huIgG1 D265E (antibody, name in EU numbering)
# heavy: not shown
# light: B1 light
# notes: copies: 2 + 2
# B13: chCB6-huIgG1 D270E (antibody, name in EU numbering)
# heavy: not shown
# light: B1 light
# notes: copies: 2 + 2
# B14: chCB6-huIgG1 D376H (antibody, name in EU numbering)
# heavy: not shown
# light: B1 light
# notes: copies: 2 + 2
# B15: chCB6-huIgG1 D376R (antibody, name in EU numbering)
# heavy: not shown
# light: B1 light
# notes: copies: 2 + 2
# B16: chCB6-huIgG1 E293D (antibody, name in EU numbering)
# heavy: not shown
# light: B1 light
# notes: copies: 2 + 2
# B17: chCB6-huIgG1 F241H (antibody, name in EU numbering)
# heavy: not shown
# light: B1 light
# notes: copies: 2 + 2
# B18: chCB6-huIgG1 H435A (antibody, name in EU numbering)
# heavy: not shown
# light: B1 light
# notes: copies: 2 + 2
# B19: chCB6-huIgG1 H435S (antibody, name in EU numbering)
# heavy: not shown
# light: B1 light
# notes: copies: 2 + 2
# B20: chCB6-huIgG1 I332D/A378F (antibody, name in EU numbering)
# heavy: not shown
# light: B1 light
# notes: copies: 2 + 2
# B21: chCB6-huIgG1 I332D/A378K (antibody, name in EU numbering)
# heavy: not shown
# light: B1 light
# notes: copies: 2 + 2
# B22: chCB6-huIgG1 I332D/A378W (antibody, name in EU numbering)
# heavy: not shown
# light: B1 light
# notes: copies: 2 + 2
# B23: chCB6-huIgG1 I332D/A378Y (antibody, name in EU numbering)
# heavy: not shown
# light: B1 light
# notes: copies: 2 + 2
# B24: chCB6-huIgG1 I332D/H435G (antibody, name in EU numbering)
# heavy: not shown
# light: B1 light
# notes: copies: 2 + 2
# B25: chCB6-huIgG1 I332D/H435S (antibody, name in EU numbering)
# heavy: not shown
# light: B1 light
# notes: copies: 2 + 2
# B26: chCB6-huIgG1 K326E (antibody, name in EU numbering)
# heavy: not shown
# light: B1 light
# notes: copies: 2 + 2
# B27: chCB6-huIgG1 K326N (antibody, name in EU numbering)
# heavy: not shown
# light: B1 light
# notes: copies: 2 + 2
# B28: chCB6-huIgG1 K338M (antibody, name in EU numbering)
# heavy: not shown
# light: B1 light
# notes: copies: 2 + 2
# B29: chCB6-huIgG1 L234D (antibody, name in EU numbering)
# heavy: not shown
# light: B1 light
# notes: copies: 2 + 2
# B30: chCB6-huIgG1 L251A (antibody, name in EU numbering)
# heavy: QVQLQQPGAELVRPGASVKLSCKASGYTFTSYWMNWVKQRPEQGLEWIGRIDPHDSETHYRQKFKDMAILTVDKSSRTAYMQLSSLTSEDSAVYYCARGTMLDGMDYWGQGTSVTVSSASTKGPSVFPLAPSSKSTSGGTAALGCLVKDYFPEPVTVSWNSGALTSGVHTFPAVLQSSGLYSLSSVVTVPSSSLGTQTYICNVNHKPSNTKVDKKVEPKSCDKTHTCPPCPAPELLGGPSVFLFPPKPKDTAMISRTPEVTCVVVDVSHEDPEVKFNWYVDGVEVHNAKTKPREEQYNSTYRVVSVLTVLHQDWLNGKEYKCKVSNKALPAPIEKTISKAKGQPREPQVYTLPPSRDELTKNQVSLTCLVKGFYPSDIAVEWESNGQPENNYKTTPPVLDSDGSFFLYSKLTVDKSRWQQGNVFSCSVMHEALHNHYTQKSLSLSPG
# light: B1 light
# notes: copies: 2 + 2
# B31: chCB6-huIgG1 L251S (antibody, name in EU numbering)
# heavy: not shown
# light: B1 light
# notes: copies: 2 + 2
# B32: chCB6-huIgG1 S239D/A378F (antibody, name in EU numbering)
# heavy: not shown
# light: B1 light
# notes: copies: 2 + 2
# B33: chCB6-huIgG1 S239D/A378K (antibody, name in EU numbering)
# heavy: not shown
# light: B1 light
# notes: copies: 2 + 2
# B34: chCB6-huIgG1 Y296F (antibody, name in EU numbering)
# heavy: not shown
# light: B1 light
# notes: copies: 2 + 2
# B35: chCB6-huIgG1 A378H (antibody, name in EU numbering)
# heavy: not shown
# light: B1 light
# notes: copies: 2 + 2
# B36: chCB6-huIgG1 A378Q (antibody, name in EU numbering)
# heavy: not shown
# light: B1 light
# notes: copies: 2 + 2
# B37: chCB6-huIgG1 E294A (antibody, name in EU numbering)
# heavy: not shown
# light: B1 light
# notes: copies: 2 + 2
# B38: chCB6-huIgG1 H435G (antibody, name in EU numbering)
# heavy: not shown
# light: B1 light
# notes: copies: 2 + 2
# B39: chCB6-huIgG1 L251G (antibody, name in EU numbering)
# heavy: not shown
# light: B1 light
# notes: copies: 2 + 2
# B40: chCB6-huIgG1 Y296S (antibody, name in EU numbering)
# heavy: not shown
# light: B1 light
# notes: copies: 2 + 2
# How the values were obtained:
# [1] = target: T1, human FcγRI (CD64) on IFNγ-activated U937 cells (human, UniProt P12314 16-374); assay: CD64 bridging assay, purified
# T1 construct: whole, on cells; also called FcγR1
# T1 sequence (P12314 16-374): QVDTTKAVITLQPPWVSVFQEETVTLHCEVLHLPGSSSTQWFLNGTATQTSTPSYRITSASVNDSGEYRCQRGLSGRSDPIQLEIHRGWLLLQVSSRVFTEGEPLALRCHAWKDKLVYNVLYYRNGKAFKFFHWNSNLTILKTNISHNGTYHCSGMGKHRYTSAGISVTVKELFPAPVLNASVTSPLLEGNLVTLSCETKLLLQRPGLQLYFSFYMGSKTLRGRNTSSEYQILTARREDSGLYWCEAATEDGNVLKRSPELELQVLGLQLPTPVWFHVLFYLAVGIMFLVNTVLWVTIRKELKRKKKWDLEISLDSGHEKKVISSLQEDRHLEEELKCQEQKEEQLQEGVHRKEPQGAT
# human C1q (Sigma C0660) [2] = target: T2, human C1q (Sigma C0660) (human, UniProt P02745 23-245; P02746 28-253; P02747 29-245); assay: C1q ELISA on CD2, purified
# T2 construct: Bought protein; also called complement protein C1q
# T2 sequence (P02745 23-245 limits assumed, chain 1 of 3): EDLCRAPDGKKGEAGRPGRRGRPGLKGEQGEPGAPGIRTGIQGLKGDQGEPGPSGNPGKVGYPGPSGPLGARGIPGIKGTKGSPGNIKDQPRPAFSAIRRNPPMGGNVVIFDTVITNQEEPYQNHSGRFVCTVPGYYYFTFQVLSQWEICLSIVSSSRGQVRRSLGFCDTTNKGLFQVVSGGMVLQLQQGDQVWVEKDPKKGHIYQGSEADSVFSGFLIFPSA
# T2 sequence (P02746 28-253 limits assumed, chain 2 of 3): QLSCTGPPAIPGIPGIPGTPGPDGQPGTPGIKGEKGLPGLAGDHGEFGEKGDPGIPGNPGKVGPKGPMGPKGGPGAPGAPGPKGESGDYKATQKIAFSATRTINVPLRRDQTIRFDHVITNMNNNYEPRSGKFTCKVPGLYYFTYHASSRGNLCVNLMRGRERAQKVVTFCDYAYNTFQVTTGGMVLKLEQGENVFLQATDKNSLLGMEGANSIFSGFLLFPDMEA
# T2 sequence (P02747 29-245 limits assumed, chain 3 of 3): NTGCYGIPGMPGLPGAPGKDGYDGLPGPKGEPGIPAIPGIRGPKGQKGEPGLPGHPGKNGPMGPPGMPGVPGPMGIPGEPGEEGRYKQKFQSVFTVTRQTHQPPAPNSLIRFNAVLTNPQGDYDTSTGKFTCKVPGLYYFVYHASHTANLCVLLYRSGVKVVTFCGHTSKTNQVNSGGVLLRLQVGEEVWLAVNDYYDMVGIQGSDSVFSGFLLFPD
# Description: (§1) The C1q binding assay was performed by coating 96 well Maxisorb ELISA plates (Nalge-Nunc Rochester, N.Y., USA) with 50 μl recombinant soluble human CD2 at 10 μg/ml overnight at 4° C. in PBS. The wells were aspirated and washed three times with wash buffer (PBS, 0.05% Tween 20) and blocked for >1 h with 200 μ/well of block/diluent buffer (0.1 M Na₂HPO₄, pH 7, 0.1 M NaCl, 0.05% Tween 20, 0.1% gelatin). The antibody to be tested was diluted in block/diluent buffer starting at 15 μg/ml with 3-fold dilutions. 50 μl were added per well, and the plates incubated for 2 h at room temperature. After aspirating and washing as above, 50 μl/well of 2 μg/ml of Sigma human C1q (C0660) diluted in block/diluent buffer was added and incubated for 1.5 h at room temperature. After aspirating and washing as above, 50 μl/well of chicken anti human C1q (Cedarlane laboratories CL2101AP), diluted 2,000-fold in block/diluent buffer, was added. After incubation for 1.5 h at room temperature, the wells were aspirated and washed as above. 50 μl/well of donkey F(ab′)₂ anti chicken IgY HRP conjugate (Jackson ImmunoResearch 703-036-155) diluted to 1:5,000 in block/diluent was then added, and the wells incubated for 1 h at room temperature. After aspirating and washing as above, 100 μl TMB substrate (420 μM TMB, 0.004% H₂O₂ in 0.1 M sodium acetate/citric acid buffer, pH 4.9) was added and incubated for 2 min before the reaction was stopped with 100 μl 2 N sulfuric acid. The absorbance was read at 450 nm with a Softmax P instrument, and Softmax software was used to determine the relative binding affinity (C value) with a 4-parameter fit.
# [3] = target: T3, human FcγRIII (CD16), CD16a (F158), on CD16-transfected Jurkat cells (human, UniProt P08637 17-254); assay: CD16 bridging assay, transient
# T3 construct: whole, on cells
# T3 sequence (P08637 17-254): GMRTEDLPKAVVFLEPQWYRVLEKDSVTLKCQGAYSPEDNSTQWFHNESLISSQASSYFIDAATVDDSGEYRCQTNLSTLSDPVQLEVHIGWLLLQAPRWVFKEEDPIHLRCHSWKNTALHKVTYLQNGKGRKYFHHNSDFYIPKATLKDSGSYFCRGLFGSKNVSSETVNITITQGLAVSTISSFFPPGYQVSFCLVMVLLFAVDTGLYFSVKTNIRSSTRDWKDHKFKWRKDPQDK
# [4] = target: T3, human FcγRIII (CD16), CD16a (F158), on …; assay: CD16 bridging assay, transient; remark: listed apart in the source
# human C1q (Sigma C0660) [5] = target: T2, human C1q (Sigma C0660); assay: C1q ELISA on CD2, transient
# Description: as §1
# [6] = target: T3, human FcγRIII (CD16), CD16a (F158), on …; assay: CD16 bridging assay, transient; remark: listed apart in the source
binder,measurement,setting,value
B1,binding result,[1],binds
same,binding result,human C1q (Sigma C0660) [2],binds
same,binding result,[3],binds
B2,binding result,[1],binds
same,fold decrease in binding vs WT,human C1q (Sigma C0660) [2],2 fold
same,binding result,[3],binds
B3,binding result,[1],binds
same,fold increase in binding vs WT,human C1q (Sigma C0660) [2],2 fold
same,binding result,[3],binds
B4,binding result,[1],binds
same,binding result,human C1q (Sigma C0660) [2],binds
same,binding result,[3],binds
B5,binding result,[1],binds
same,binding result,human C1q (Sigma C0660) [2],binds
same,binding result,[3],binds
B6,binding result,[1],binds
same,binding result,human C1q (Sigma C0660) [2],binds
same,binding result,[3],binds
B7,binding result,[1],binds
same,binding result,human C1q (Sigma C0660) [2],binds
same,binding result,[3],binds
B8,fold decrease in binding vs WT,[1],5 fold
same,fold increase in binding vs WT,human C1q (Sigma C0660) [2],4 fold
same,binding result,[3],binds
B9,binding result,[1],binds
same,binding result,human C1q (Sigma C0660) [2],binds
same,fold increase in binding vs WT,[3],3 fold
B10,binding result,[4],binds
same,fold increase in binding vs WT,human C1q (Sigma C0660) [5],4 fold
B11,binding result,[4],binds
same,binding result,human C1q (Sigma C0660) [5],binds
B12,binding result,[3],no binding
B13,binding result,[3],binds
B14,fold decrease in binding vs WT,[4],6 fold
same,binding result,human C1q (Sigma C0660) [5],binds
B15,fold decrease in binding vs WT,[4],9 fold
same,binding result,human C1q (Sigma C0660) [5],binds
B16,fold decrease in binding vs WT,[3],4 fold
B17,fold decrease in binding vs WT,[3],9 fold
B18,fold decrease in binding vs WT,[4],4 fold
same,binding result,human C1q (Sigma C0660) [5],binds
B19,fold decrease in binding vs WT,[4],5 fold
same,fold increase in binding vs WT,human C1q (Sigma C0660) [5],4 fold
B20,fold increase in binding vs WT,[6],5 fold
B21,binding result,[6],binds
B22,fold increase in binding vs WT,[6],5 fold
B23,fold increase in binding vs WT,[6],5 fold
B24,binding result,[6],binds
B25,binding result,[6],binds
B26,binding result,[3],binds
B27,binding result,[3],binds
B28,fold decrease in binding vs WT,[3],6 fold
B29,fold decrease in binding vs WT,[3],4 fold
B30,fold increase in binding vs WT,human C1q (Sigma C0660) [2],2 fold
same,binding result,[4],binds
same,fold increase in binding vs WT,human C1q (Sigma C0660) [5],3 fold
B31,binding result,[4],binds
same,binding result,human C1q (Sigma C0660) [5],binds
B32,fold increase in binding vs WT,[6],5 fold
B33,fold increase in binding vs WT,[6],5 fold
B34,fold decrease in binding vs WT,[3],2 fold
B35,fold decrease in binding vs WT,[4],6 fold
same,binding result,human C1q (Sigma C0660) [5],binds
B36,binding result,[4],binds
same,binding result,human C1q (Sigma C0660) [5],binds
B37,fold decrease in binding vs WT,human C1q (Sigma C0660) [2],3 fold
B38,fold decrease in binding vs WT,[4],4 fold
same,fold increase in binding vs WT,human C1q (Sigma C0660) [5],4 fold
B39,binding result,[4],no binding
same,fold increase in binding vs WT,human C1q (Sigma C0660) [5],3 fold
B40,fold decrease in binding vs WT,human C1q (Sigma C0660) [2],5 fold
same,fold decrease in binding vs WT,human C1q (Sigma C0660) [5],4 fold

# Reference: patent publication US20100203046A1 (Biogen, published 2010)
